This note sets out measurements from IntAct's records for PubMed 10633111.

To fix the notation:
B1: Protein virB8 (Agrobacterium tumefaciens (strain C58 / ATCC 33970)), P17798 (parent)
chain: MKGSEYALLVARETLAEHYKEVEAFQTARAKSARRLSKVIAAVATIAVLGNVAQAFTIATMVPLIRLVPVYLWIRPDGTVDSEVSVSRLPATQEEAVVNASLWEYVRLRESYDADTAQYAYDLVSNFSAPMVRQNYQQFFNYPNPTSPQVILGKHGRLEVEHIASNDVTPGVQQIRYKRTLIVDGKMPMASTWTATVRYEKVTSLPGRLRLTNPGGLVVTSYQTSEDTVSNAGHSEP
partner: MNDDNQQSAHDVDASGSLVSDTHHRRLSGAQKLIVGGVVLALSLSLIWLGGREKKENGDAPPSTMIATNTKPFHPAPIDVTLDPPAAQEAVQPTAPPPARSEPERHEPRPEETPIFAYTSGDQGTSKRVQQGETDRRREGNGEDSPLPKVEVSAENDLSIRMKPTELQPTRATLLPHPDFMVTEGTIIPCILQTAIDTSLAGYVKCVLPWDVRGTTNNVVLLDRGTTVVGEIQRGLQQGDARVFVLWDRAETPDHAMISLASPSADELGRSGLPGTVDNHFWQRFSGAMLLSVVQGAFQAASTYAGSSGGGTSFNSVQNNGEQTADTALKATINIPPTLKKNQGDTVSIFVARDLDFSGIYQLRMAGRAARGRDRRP
B2: Protein virB8 (Agrobacterium tumefaciens (strain C58 / ATCC 33970)), P17798 (parent)
chain: B1 chain
partner: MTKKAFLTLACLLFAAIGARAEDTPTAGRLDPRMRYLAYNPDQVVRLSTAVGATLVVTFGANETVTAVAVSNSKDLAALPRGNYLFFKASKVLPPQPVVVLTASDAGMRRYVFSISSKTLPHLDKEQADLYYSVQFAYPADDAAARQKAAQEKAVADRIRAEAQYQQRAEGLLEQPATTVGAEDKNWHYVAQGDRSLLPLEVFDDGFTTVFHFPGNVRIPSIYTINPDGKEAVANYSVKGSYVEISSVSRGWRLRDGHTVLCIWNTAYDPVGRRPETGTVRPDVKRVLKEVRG

Variants of B1 are the subject of one assay. Conditions: with virba_agrfc virB10, P17800.
As for MKGSEYALLVARETLAEHYKEVEAFQTARAKSARRLSKVIAAVATIAVLGNVAQAFTIATMVPLIRLVPVYLWIRPDGTVDSEVSVLRLPATQEEAVVNASLWEYVRLRESYDADTAQYAYDLVSNFSAPMVRQNYQQFFNYPNPTSPQVILGKHGRLEVEHIASNDVTPGVQQIRYKRTLIVDGKMPMASTWTATVRYEKVTSLPGRLRLTNPGGLVVTSYQTSEDTVSNAGHSEP [S87L], the “effect of a mutation on the interaction” value is “decreasing interaction”.

The variants in the next assay derive from B2. Conditions: with virb9_agrfc virB9, P17799.
For MKGSEYALLVARETLAEHYKEVEAFQTARAKSARRLSKVIAAVATIAVLGNVAQAFTIATMVPLIRLVPVYLWIRPDGTVDSEVSVLRLPATQEEAVVNASLWEYVRLRESYDADTAQYAYDLVSNFSAPMVRQNYQQFFNYPNPTSPQVILGKHGRLEVEHIASNDVTPGVQQIRYKRTLIVDGKMPMASTWTATVRYEKVTSLPGRLRLTNPGGLVVTSYQTSEDTVSNAGHSEP [S87L], the “effect of a mutation on the interaction” value is reported as “disrupting interaction”.
